Test results from PMC4165468.
Where two headings read alike, the source gives them in different places.

What was measured:
Experiment in all cases: SPR
[1] = molecular target: T1, L7Ae (Archaeoglobus fulgidus, UniProt O29494 1-119)
[2] = molecular target: T2, L7Ae-K (L7-K) (Archaeoglobus fulgidus, UniProt O29494 1-119, K37A)
[3] = molecular target: T2, L7Ae-K (L7-K); remark: listed apart in the source
[4] = molecular target: T1, L7Ae; remark: listed apart in the source

T2 sequence (O29494 whole entry K37A): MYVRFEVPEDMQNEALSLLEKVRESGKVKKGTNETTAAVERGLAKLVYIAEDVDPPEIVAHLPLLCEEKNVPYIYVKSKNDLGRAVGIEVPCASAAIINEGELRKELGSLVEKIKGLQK
T1 sequence (O29494 whole entry): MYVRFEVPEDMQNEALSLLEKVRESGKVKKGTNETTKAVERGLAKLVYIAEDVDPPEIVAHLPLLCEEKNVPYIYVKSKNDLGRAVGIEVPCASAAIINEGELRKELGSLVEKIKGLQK

Row | Binder | Kd [1] [nM] | Kd [2] [nM] | Kd [3] [nM] | Kd [4] [nM]
1 | GGAUCUGGGGCGUGAUCCGAAAGGUGACCCGGAUCC (structured_RNA) [K-turn] | 1.6 | 15 | – | –
2 | GGAUCUGGGGUCUGAACGGUGAUGACCCGGAUCC (structured_RNA) [K-loop] | – | – | 26 | 2.2
